Experimental data taken from patent publication US9506077B2, “Synthetic chloroplast transit peptides” (DOW AGROSCIENCES LLC, priority 2012, dated 2016).

B1: TraP23: synthetic chloroplast transit peptide, SEQ ID NO:11; encoded by SEQ ID NO:12; tested fused to GFP, dgt-28, dgt-31, cry2Aa (protein)
chain: MAQINKSANGVRNASLISNFSNTRQAKSPFSLSCGTRLKNSSRGLKKVAVRLIGSRVKVSAS
modifications: TraP23 synthetic chloroplast transit peptide
notes: tested fused to GFP, dgt-28, dgt-31, cry2Aa
B2: TraP4: chloroplast transit peptide, encoding sequence SEQ ID NO:24, fused to dgt-28 (protein)
chain: MLARQGGSLRASQCNAGLARRVEVGALVVPRPISVNDVVPHVYSAPLSVARRSCSKSSIRSTRRLQTTVCS
modifications: Chloroplast Transit Peptide
B3: TraP8: chloroplast transit peptide, encoding sequence SEQ ID NO:26, fused to dgt-28 (protein)
chain: MAQSSRICHGVQNPCVIISNLSKSNQNKSPFSVSLKTHQQQRRAYQISSWGLKKSNNGSVIRPVKA
modifications: Chloroplast Transit Peptide

Legend:
T1 Arabidopsis = T1 Arabidopsis response to glyphosate applied postemergence (Tables 5-7); type: in vivo, Arabidopsis thaliana
Excerpt: Transgenic T1 Arabidopsis plants containing the dgt-28 transgene were sprayed with differing rates of glyphosate. Elevated rates were applied in this study to determine the relative levels of resistance (105, 420, 1,680 or 3,360 g ae/ha). A typical 1× usage rate of glyphosate that will control non-transformed Arabidopsis is 420 g ae/ha. […] The T1 Arabidopsis plants that were used in this study were variable copy number for the dgt-28 transgene. The low copy dgt-28 T1 Arabidopsis plants were self-pollinated and used to produce T2 plants.
The Arabidopsis T1 transformants were first selected from the background of untransformed seed using a glufosinate selection scheme. Three flats or 30,000 seed were analyzed for each T1 construct. The T1 plants selected above were molecularly characterized and representative plants with variable copy number were subsequently transplanted to individual pots and sprayed with various rates of commercial glyphosate as previously described. The response of these plants is presented in terms of % visual injury 2 weeks after treatment (WAT). […] An arithmetic mean and standard deviation is presented for each construct used for Arabidopsis transformation. The range in individual response is also indicated in the last column for each rate and transformation. Wild-type, non-transformed Arabidopsis (c.v. Columbia) served as a glyphosate sensitive control.

[1] = test system: chloroplasts of the tobacco cells; experiment: Tobacco transient assay, confocal microscopy of TraP-GFP; type: cell-based, Nicotiana benthamiana; details: TraP23-GFP, infiltrated tobacco leaf
Excerpt: The Trap23 synthetic chloroplast transit peptide sequence were initially tested via a transient in planta assay. A polynucleotide sequence which encodes the Trap23v2 (SEQ ID NO:12) synthetic chloroplast transit peptide sequences was synthesized. The resulting construct contained two plant transcription units (PTU). The first PTU was comprised of the Arabidopsis thaliana Ubiquitin 10 promoter (AtUbi10 promoter; Callis, et al., (1990) J. Biol. Chem., 265: 12486-12493), TraP-green fluorescent protein fusion gene (TraP-GFP; U.S. Pat. No. 7,678,893), and Agrobacterium tumefaciens ORF 23 3′ untranslated region (AtuORF23 3′UTR; U.S. Pat. No. 5,428,147). […]
Agrobacterium-infiltrated tobacco leaves were severed from the plant, and placed into a petri-dish with water to prevent dehydration. The infiltrated tobacco leaves were observed under blue light excitation with long-pass filter glasses held in place using a Dark Reader Hand Lamp™ (Clare Chemical Research Co.; Dolores, Colo.) to identify undamaged areas of the leaf that were successfully expressing the GFP reporter proteins. […]

[2] = test system: infiltrated tobacco cells; experiment: Tobacco transient assay, anti-GFP Western blot; type: cell-based, Nicotiana benthamiana; details: infiltrated tobacco leaf; band size vs GFP control
Experimental: Samples of the infiltrated tobacco plants were assayed via Western blotting. Leaf punches were collected and subjected to bead-milling. About 100-200 mg of leaf material was mixed with 2 BBs (steel balls; Daisy; Rogers, Ark.) and […] of PBST for 3 minutes in a Kleco™ bead mill. The samples were then spun down in a centrifuge at 14,000×g at 4° C. The supernatant was removed and either analyzed directly via Western blot or immunoprecipitated. The immunoprecipitations were performed using the Pierce Direct IP Kit™ (Thermo Scientific; Rockford, Ill.) following the manufacturer's protocol. Approximately, 50 μg of anti-GFP was bound to the resin. The samples were incubated with the resin overnight at 4° C. Next, the samples were washed and eluted the following morning and prepped for analysis by combining equal volumes of 2×8M Urea sample buffer and then boiling the samples for 5 minutes. The boiled samples were run on a 4-12% SDS-Bis Tris gel in MOPS buffer for 40 minutes. The gel was then blotted using the Invitrogen iBlot™ (Life Technologies; Carlsbad, Calif.) following the manufacturer's protocol. The blotted membrane was blocked for 10 minutes using 5% non-fat dry milk in PBS-Tween solution. The membrane was probed with the primary antibody (monoclonal anti-GFP in rabbit) used at a 1:1000 dilution in the 5% non-fat dry milk in PBS-Tween solution for 1 hour. […]

[3] = test system: chloroplasts of the maize protoplast; experiment: Maize protoplast transient assay, GFP microscopy; type: cell-based, Zea mays var. B104; details: TraP23-GFP, maize protoplasts, 12 hours incubation
Excerpt: The Trap23 v2 synthetic chloroplast transit peptide-encoding polynucleotide sequence (SEQ ID NO:12) was cloned upstream of the green fluorescent protein gene and incorporated into the pDAB106598 construct (FIG. 5) for testing via the maize protoplast transient in planta assay. The resulting construct contained the following plant transcription unit (PTU). The first PTU was comprised of the Zea mays Ubiquitin 1 promoter (ZmUbi1 promoter; Christensen, A., Sharrock R., and Quail P., (1992) Maize polyubiquitin genes: structure, thermal perturbation of expression and transcript splicing, and promoter activity following transfer to protoplasts by electroporation, Plant Molecular Biology, 18:675-689), TraP-green fluorescent protein fusion gene (TraP23-GFP; U.S. Pat. No. 7,678,893), and Zea mays Peroxidase 5 3′ untranslated region (ZmPer5 3′UTR; U.S. Pat. No. 6,384,207). The construct was confirmed via restriction enzyme digestion and sequencing.
Seed of Zea mays var. B104 were surface sterilized by shaking vigorously in 50% Clorox (3% sodium hypochlorite), containing 2-3 drops of Tween 20, for about 20 minutes. […]
Transfection of 100 to 500 μl of protoplasts (1-5×10^5) was completed by adding the protoplasts to a 2 ml microfuge tube containing about 40 μg of plasmid DNA (pDAB106598), at room temperature. […] Fluorescence of GFP was viewed by microscopy after 12 hours of incubation. […]

T1 tobacco = experiment: Postemergence glyphosate tolerance of dgt-28 T1 tobacco (Table 25); type: in vivo, Tobacco (cv. Petit Havana); details: 2240 g ae/ha glyphosate, 14 DAT
Excerpt: T1 resistant plants from each event used in the progeny testing were given unique identifiers and sampled for zygosity analyses of the dgt-28 gene. Zygosity data were used to assign 2 hemizygous and 2 homozygous replicates to each rate of glyphosate applied allowing for a total of 4 replicates per treatment. These plants were compared against wildtype Petite havana tobacco. All plants were sprayed with a track sprayer set at 187 L/ha. The plants were sprayed from a range of 560-4480 g ae/ha DURANGO DMA™. All applications were formulated in water with the addition of 2% w/v ammonium sulfate (AMS). Plants were evaluated at 7 and 14 days after treatment. Plants were assigned an injury rating with respect to overall visual stunting, chlorosis, and necrosis. The T1 generation is segregating, so some variable response is expected due to difference in zygosity.

Molecule | typical 1x usage rate of glyphosate that will control non-transformed Arabidopsis (T1 Arabidopsis) | accumulation of GFP protein within the chloroplasts (microscopy imaging) [1] | processing and cleavage of transit peptide from GFP (Western blot) [2] | accumulation of GFP within the chloroplasts (microscopy imaging) [3] | % Injury Ave (T1 tobacco)
O=C(O)CNCP(=O)(O)O [glyphosate] | 420 g ae/ha | – | – | – | –
B1 | – | did not accumulate detectable amounts of GFP protein within the chloroplasts | processed | accumulated within the chloroplasts | 9.5%
B2 | – | – | – | – | of 37.5% was demonstrated with the event containing TraP4,
B3 | – | – | – | – | 9.3%
